Biological target: IGF2BP1-Flag (recombinant);RBRP-Flag WT (Homo sapiens?;Homo sapiens, UniProt Q9NZI8;C0HM01 1-577;1-71, |)
Assay: EMSA; RBRP WT increases IGF2BP1 binding; Pull-down: 1 nmol biotin-RNA on streptavidin-agarose, nuclear extract, 30 C 30 min, immunoblot. EMSA: LightShift kit, 20 pmol RNA, 6 ug IGF2BP1-Flag, 2 ug RBRP, room temperature 30 min, then 0.2% glutaraldehyde (1 ul) on ice 15 min, 6% TBE gel; salt and binding pH not stated
Conditions: protein: recombinant;recombinant; label: biotin 5'; single strand

Sequence of IGF2BP1-Flag (recombinant);RBRP-Flag WT (Q9NZI8 whole entry, chain 1 of 2): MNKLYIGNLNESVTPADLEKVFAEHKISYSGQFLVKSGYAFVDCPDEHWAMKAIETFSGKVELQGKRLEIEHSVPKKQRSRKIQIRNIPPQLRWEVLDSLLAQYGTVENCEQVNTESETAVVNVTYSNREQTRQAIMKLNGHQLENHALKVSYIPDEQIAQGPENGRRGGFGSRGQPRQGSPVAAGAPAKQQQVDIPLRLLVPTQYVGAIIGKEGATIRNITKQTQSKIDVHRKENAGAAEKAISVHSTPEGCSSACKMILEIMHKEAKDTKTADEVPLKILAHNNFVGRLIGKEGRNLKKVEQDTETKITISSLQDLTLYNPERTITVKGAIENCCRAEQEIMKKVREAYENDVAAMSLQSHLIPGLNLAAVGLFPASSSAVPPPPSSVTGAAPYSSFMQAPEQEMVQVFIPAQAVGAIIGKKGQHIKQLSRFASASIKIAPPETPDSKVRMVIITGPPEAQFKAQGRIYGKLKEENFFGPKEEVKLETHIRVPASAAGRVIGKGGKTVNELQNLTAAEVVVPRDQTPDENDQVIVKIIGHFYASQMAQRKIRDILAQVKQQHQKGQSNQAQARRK
Sequence of IGF2BP1-Flag (recombinant);RBRP-Flag WT (C0HM01 whole entry, chain 2 of 2): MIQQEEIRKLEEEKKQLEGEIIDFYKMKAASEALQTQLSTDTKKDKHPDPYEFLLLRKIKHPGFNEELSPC

CGUCUCGGACUCGGACUGCU (ssRNA, m6A at 9 and 15) [ss-m6A]: binds.

— publication PMC7125119, “An oncopeptide regulates m6A recognition by the m6A reader IGF2BP1 and tumorigenesis”
